The values below come from article PMC10289004.

Data set [1] in a line: RIPK1 protein level, HT-29 or HEK293. To be noted: glycan lost; control: untreated / control knockdown.
Data set [2] is described as follows: western blot, erythrocytes of LPS-injected mice. To be noted: glycan gained; control: LPS + PBS.
Data set [3] is described as follows: western blot, MEFs, 4h TSZ. To be noted: glycan lost; control: TSZ alone.
Data set [4] can be described thus: RIPK1 protein level, MEFs. To be noted: glycan lost; control: untreated.

B1: RIPK1 (hRIPK1): OGT knockdown (protein)
parent chain: MQPDMSLNVIKMKSSDFLESAELDSGGFGKVSLCFHRTQGLMIMKTVYKGPNCIEHNEALLEEAKMMNRLRHSRVVKLLGVIIEEGKYSLVMEYMEKGNLMHVLKAEMSTPLSVKGRIILEIIEGMCYLHGKGVIHKDLKPENILVDNDFHIKIADLGLASFKMWSKLNNEEHNELREVDGTAKKNGGTLYYMAPEHLNDVNAKPTEKSDVYSFAVVLWAIFANKEPYENAICEQQLIMCIKSGNRPDVDDITEYCPREIISLMKLCWEANPEARPTFPGIEEKFRPFYLSQLEESVEEDVKSLKKEYSNENAVVKRMQSLQLDCVAVPSSRSNSATEQPGSLHSSQGLGMGPVEESWFAPSLEHPQEENEPSLQSKLQDEANYHLYGSRMDRQTKQQPRQNVAYNREEERRRRVSHDPFAQQRPYENFQNTEGKGTAYSSAASHGNAVHQPSGLTSQPQVLYQNNGLYSSHGFGTRPLDPGTAGPRVWYRPIPSHMPSLHNIPVPETNYLGNTPTMPFSSLPPTDESIKYTIYNSTGIQIGAYNYMEIGGTSSSLLDSTNTNFKEEPAAKYQAIFDNTTSLTDKHLDPIRENLGKHWKNCARKLGFTQSQIDEIDHDYERDGLKEKVYQMLQKWVMREGIKGATVGKLAQALHQCSRIDLLSSLIYVSQN
For B1, in data set [1], the expression_or_secretion result is on record as “no change”.

B2: RIPK1 (mouse): TMG (protein)
parent chain: MQPDMSLDNIKMASSDLLEKTDLDSGGFGKVSLCYHRSHGFVILKKVYTGPNRAEYNEVLLEEGKMMHRLRHSRVVKLLGIIIEEGNYSLVMEYMEKGNLMHVLKTQIDVPLSLKGRIIVEAIEGMCYLHDKGVIHKDLKPENILVDRDFHIKIADLGVASFKTWSKLTKEKDNKQKEVSSTTKKNNGGTLYYMAPEHLNDINAKPTEKSDVYSFGIVLWAIFAKKEPYENVICTEQFVICIKSGNRPNVEEILEYCPREIISLMERCWQAIPEDRPTFLGIEEEFRPFYLSHFEEYVEEDVASLKKEYPDQSPVLQRMFSLQHDCVPLPPSRSNSEQPGSLHSSQGLQMGPVEESWFSSSPEYPQDENDRSVQAKLQEEASYHAFGIFAEKQTKPQPRQNEAYNREEERKRRVSHDPFAQQRARENIKSAGARGHSDPSTTSRGIAVQQLSWPATQTVWNNGLYNQHGFGTTGTGVWYPPNLSQMYSTYKTPVPETNIPGSTPTMPYFSGPVADDLIKYTIFNSSGIQIGNHNYMDVGLNSQPPNNTCKEESTSRHQAIFDNTTSLTDEHLNPIRENLGRQWKNCARKLGFTESQIDEIDHDYERDGLKEKVYQMLQKWLMREGTKGATVGKLAQALHQCCRIDLLNHLIRASQS
With B2, the “other: RIPK1 Ser166 phosphorylation” value in data set [2] is “decreases”.

B3: RIPK1 (mouse): OSMI-4 (protein)
parent chain: B2 parent chain
On to B3, for which the “other: RIPK1 Ser166 phosphorylation” value in data set [3] is listed as “increases”. The expression_or_secretion entry in data set [4] is recorded as “no change”.
